Data: US8106004B2, “Methods of inhibiting tumor cell aggressiveness using the microenvironment of human embryonic stem cells” (Children's Memorial Hospital, priority 2006, dated 2012)

Columns and labels:
Format in all cases: cell-based, human
[1] = tested on: MDA-MB-231 cells; experiment: Soft agar / anchorage independent growth assay, MDA-MB-231 cells; details: recombinant Nodal 100 ng/mL
Method: The melanoma cell lines are maintained in RPMI 1640 medium (Invitrogen) supplemented with 10% fetal bovine serum (FBS, Gemini Bioproducts) and 0.1% gentamycin sulfate with the exception of C81-61 cells which are maintained in Ham's FIO medium supplemented with 15% FBS, 1X Mito+ (BD Bioscience) and gentamycin sulfate. Normal human melanocytes are purchased (Cascade Biologics) or isolated from neonatal foreskins. […] A single cell suspension is prepared, added to plastic flasks for the adherence of melanocytes and the cells propagated in Medium 254 with Human Melanocyte Growth Supplement (Cascade Biologics) including, 100 units/ml penicillin, 100 μg/ml streptomycin, and 250 ng/mL amphotericin B. The human embryonic stem cell lines are cultured as previously described. […] Briefly, cells are grown in 6-well plates precoated with 0.1% porcine gelatin and containing 1.9×10^5 irradiated mouse embryonic fibroblasts (strain CF-1; ATCC) per well. […] The cultures are determined to be free of mycoplasma contamination using a PCR-based assay (Roche). […] The conditioned matrix is then analyzed by 2-D LDS-PAGE and Western blot directly, or reseeded with melanoma cells and incubated for an additional 3 days. […]

[2] = tested on: C8161 cells; experiment: Soft agar / anchorage independent growth assay, C8161 cells; details: for rescue of inhibition of in vitro clonogenicity: recombinant Nodal 100 ng/mL
Method: (§1) An in vitro colony forming assay was used to analyze colony-forming ability of poorly aggressive C81-61 cells, aggressive C8161 cells, C8161 cells treated with MO^Nodal and C8161 cells treated with MO^Nodal and rescued with recombinant Nodal (100 ng/mL). The assay was conducted using 50,000 cells suspended in 0.35% agarose in RPMI containing 10% serum, which were plated into 6-well dishes on 0.5% agar in the same medium. Colonies grew, and pictures were taken at day 7. After 2 weeks, colonies were stained with Crystal Violet and counted.
The derivation and phenotypic characteristics of the human melanoma cell lines have been previously described. Seftor, et. al., 2002, Clin. Experim. Metastas. 19:233-246; Seftor, et. al., 2005 Cancer Res. 65:10164-10169. The melanoma cell lines are maintained in RPMI 1640 medium (Invitrogen) supplemented with 10% fetal bovine serum (FBS, Gemini Bioproducts) and 0.1% gentamycin sulfate with the exception of C81-61 cells which are maintained in Ham's FIO medium supplemented with 15% FBS, 1X Mito+ (BD Bioscience) and gentamycin sulfate. Normal human melanocytes are purchased (Cascade Biologics) or isolated from neonatal foreskins. Seftor, et. al., 2005. A single cell suspension is prepared, added to plastic flasks for the adherence of melanocytes and the cells propagated in Medium 254 with Human Melanocyte Growth Supplement (Cascade Biologics) including, 100 units/ml penicillin, 100 μg/ml streptomycin, and 250 ng/mL amphotericin B. The human embryonic stem cell lines are cultured as previously described. Thomson, et. al., 1998, Science 282:1145-1147. Briefly, cells are grown in 6-well plates precoated with 0.1% porcine gelatin and containing 1.9×10^5 irradiated mouse embryonic fibroblasts (strain CF-1; ATCC) per well. The cells are maintained in medium containing DMEM/F12 (1:1), 20% knock-out serum replacement, non-essential minimal amino acids, L-glutamine (Invitrogen), […], and 4 ng/ml FGF-2 (R&D Systems), and are split with collagenase (1 mg/ml) before the colonies begin to overlap. The cultures are determined to be free of mycoplasma contamination using a PCR-based assay (Roche). The normal human neonatal epidermal melanocytes (HEMn-LP; Cascade Biologics, Portland Oreg.), myoepithelial cells (Hs 578 Bst; American Type Culture Collection (ATCC), Manassas, Va.) and primary mammary epithelial cells (HMEpC; Cell Applications Inc., San Diego Calif.) were maintained as per distributor instructions. Live umbilical cord blood stem cells (SC00125; New Jersey Stem Cell Resource at Coriell Institute for Medical Research) amniotic fluid derived stem cells (GM00473, GM00957A) and adult bone marrow derived mesenchymal stem cells (Stem Cell Technologies, Vancouver BC, Canada) were maintained under the recommended conditions. The HTR-8/SVneo is a well characterized immortalized human extravillous cytotrophoblast cell line, and was maintained as previously described Graham et al., 1993, Exp. Cell Res. 206:204-211. […] The expression vector for wild type Nodal was kindly provided by Dr. Daniel Constam (Swiss Institute for Experimental Cancer Research (ISREC), Epalinges, Switzerland) and was transfected into C81-61 cells as previously described. Le Good et al., 2005, Curr. Biol. 15:31-36. […]

[3] = tested on: C81-61 cells; experiment: Soft agar colony forming assay, C81-61 cells; details: C81-61 cell line, rNodal
Method: as §1

[4] = tested on: Nodal; experiment: Nodal expression in C8161 cells (Western blot, real time RT-PCR); details: C8161 exposed 48 hrs to 0-1000 ng/mL recombinant Lefty
Method: A determination of the effects of H9 CMTX on Nodal expression in metastatic melanoma (C8161) and breast carcinoma (MDA-MB-231) cells was undertaken. […] Exposure to H9 CMTX similarly abrogates Nodal mRNA expression in the melanoma and breast carcinoma cells (FIG. 9C).
Protein lysates were prepared and quantified as previously described in Hess et al., 2001, Cancer Res. 61:3250-3255. Equal amounts of protein were separated by SDS-polyacrylamide gel electrophoresis under reducing conditions, and the resolved proteins were transferred onto Immobilon-P membranes (Millipore Corp., Bedford, Mass.). Membranes were blocked in 1% TBS, 0.1% Tween 20 (TBS-T) and 5% dry milk powder or 3% gelatin (for Nodal Westerns). Blots were incubated with anti-Nodal or anti-Lefty antibodies (Polyclonal rabbit anti-Nodal (H-110) 1:500 Santa Cruz Biotechnology, Santa Cruz, Calif.; Polyclonal goat anti-Lefty 1:500 R&D Systems, Minneapolis, Minn.), washed in TBS-T, and incubated with the appropriate horseradish peroxidase-labeled secondary antibody. Secondary antibodies were detected by enhanced chemiluminescence (Super Signal; Pierce, Rockford, Ill.) and exposure to autoradiography film (Molecular Technologies, St Louis, Mo.). Nodal protein was detected as two major bands at ˜48 and ˜35 kDa representing precursor and pro-Nodal respectively. Nodal often appeared as multiple bands, likely due to degradation of protein modifications. All experiments were done at least three times.
The derivation and phenotypic characteristics of the human melanoma cell lines have been previously described. Seftor, et. al., 2002, Clin. Experim. Metastas. 19:233-246; Seftor, et. al., 2005 Cancer Res. 65:10164-10169. The melanoma cell lines are maintained in RPMI 1640 medium (Invitrogen) supplemented with 10% fetal bovine serum (FBS, Gemini Bioproducts) and 0.1% gentamycin sulfate with the exception of C81-61 cells which are maintained in Ham's FIO medium supplemented with 15% FBS, 1X Mito+ (BD Bioscience) and gentamycin sulfate. […] The cultures are determined to be free of mycoplasma contamination using a PCR-based assay (Roche). […]

Molecule | rescue of inhibition of in vitro clonogenicity ([1]; MDA-MB-231 exposed to H9 CMTX) | rescue of inhibition of in vitro clonogenicity ([1]; MDA-MB-231 exposed to H9 Lefty-containing matrix) | rescue of inhibition of in vitro clonogenicity ([2]; C8161 exposed to H9 CMTX) | rescue of inhibition of in vitro clonogenicity ([2]; C8161 exposed to H9 Lefty-containing matrix) | rescue of reduced colony formation ([2]; C8161 treated with MONodal, rNodal 100 ng/mL) | colony formation [3] | Nodal protein expression (Western blot) [4]
rNodal: recombinant Nodal (R&D Systems), used at 100 ng/mL (protein, UniProt Q96S42 238-347, looked up) Nodal homolog: HHLPDRSQLCRKVKFQVDFNLIGWGSWIIYPKQYNAYRCEGECPNPVGEEFHPTNHAYIQSLLKRYQPHRVPSTCCAPVKTKPLSMLYVDNGRVLLDHHKDMIVEECGCL | partially rescued | completely rescued | partially rescued | completely rescued | rescued | did not induce colony formation | –
rLeftyB: recombinant Lefty-B (protein, UniProt O00292 77-366, looked up) Left-right determination …: RFSQSFREVAGRFLASEASTHLLVFGMEQRLPPNSELVQAVLRLFQEPVPKAALHRHGRLSPRSAQARVTVEWLRVRDDGSNRTSLIDSRLVSVHESGWKAFDVTEAVNFWQQLSRPRQPLLLQVSVQREHLGPLASGAHKLVRFASQGAPAGLGEPQLELHTLDLRDYGAQGDCDPEAPMTEGTRCCRQEMYIDLQGMKWAKNWVLEPPGFLAYECVGTCQQPPEALAFNWPFLGPRQCIASETASLPMIVSIKEGGRTRPQVVSLPNMRVQKCSCASDGALVPRRLQP | – | – | – | – | – | – | can inhibit Nodal protein in C8161 cells, but at a higher doses than its hESC counterpart
